According to PMC12279963 (Nature Communications, 2025):

T1: EcPBP1b^C794A (pSI233), truncation 58-804, Cy3-labelled at C776 (E. coli, UniProt P02919 58-804, C794A, Cy3 (sulfo-Cy3-maleimide) on C776)
T1 sequence (looked up): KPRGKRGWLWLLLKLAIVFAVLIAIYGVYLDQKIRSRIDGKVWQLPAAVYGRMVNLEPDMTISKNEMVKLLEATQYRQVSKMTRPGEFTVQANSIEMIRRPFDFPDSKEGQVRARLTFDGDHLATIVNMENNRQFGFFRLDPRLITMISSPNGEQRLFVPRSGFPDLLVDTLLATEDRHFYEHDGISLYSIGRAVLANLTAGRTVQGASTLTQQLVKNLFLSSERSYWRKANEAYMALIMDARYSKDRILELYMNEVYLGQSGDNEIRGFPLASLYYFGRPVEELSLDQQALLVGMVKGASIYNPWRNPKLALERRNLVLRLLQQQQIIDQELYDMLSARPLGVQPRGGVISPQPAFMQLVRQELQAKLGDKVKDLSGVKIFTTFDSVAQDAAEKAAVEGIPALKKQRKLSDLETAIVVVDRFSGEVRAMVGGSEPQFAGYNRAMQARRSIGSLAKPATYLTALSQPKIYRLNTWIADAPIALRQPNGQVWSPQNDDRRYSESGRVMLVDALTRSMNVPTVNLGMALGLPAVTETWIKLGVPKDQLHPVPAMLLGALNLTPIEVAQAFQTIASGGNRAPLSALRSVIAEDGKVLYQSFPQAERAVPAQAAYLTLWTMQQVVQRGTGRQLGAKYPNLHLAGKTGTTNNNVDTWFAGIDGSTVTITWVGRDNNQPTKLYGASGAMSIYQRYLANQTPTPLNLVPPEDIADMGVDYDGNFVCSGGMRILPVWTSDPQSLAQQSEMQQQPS

T2: EcPBP1b^82-804 (pSI199), TM domain substituted with an N-terminal cysteine acylation site, ALFA-tagged (E. coli) (UniProt P02919)
T2 sequence (P02919 82-804, looked up): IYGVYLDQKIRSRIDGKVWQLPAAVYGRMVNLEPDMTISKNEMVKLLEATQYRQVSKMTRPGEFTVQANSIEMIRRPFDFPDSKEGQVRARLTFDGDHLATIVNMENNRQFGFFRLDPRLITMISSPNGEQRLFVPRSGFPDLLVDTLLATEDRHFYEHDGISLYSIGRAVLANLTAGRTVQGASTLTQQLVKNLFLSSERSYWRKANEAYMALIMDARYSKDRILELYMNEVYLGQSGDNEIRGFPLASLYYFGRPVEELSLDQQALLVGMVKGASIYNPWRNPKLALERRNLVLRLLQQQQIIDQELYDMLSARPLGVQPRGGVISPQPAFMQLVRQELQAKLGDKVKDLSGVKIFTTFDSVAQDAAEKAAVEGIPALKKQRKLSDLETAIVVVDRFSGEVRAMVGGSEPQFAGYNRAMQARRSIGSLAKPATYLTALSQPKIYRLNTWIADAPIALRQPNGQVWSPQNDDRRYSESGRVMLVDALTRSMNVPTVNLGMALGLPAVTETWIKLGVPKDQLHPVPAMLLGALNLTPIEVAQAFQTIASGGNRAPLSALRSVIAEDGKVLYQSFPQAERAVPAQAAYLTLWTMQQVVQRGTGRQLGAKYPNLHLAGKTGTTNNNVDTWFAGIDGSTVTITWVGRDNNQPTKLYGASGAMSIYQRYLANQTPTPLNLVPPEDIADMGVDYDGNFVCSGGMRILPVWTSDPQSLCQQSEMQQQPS


What was measured:
[1] = molecular target: T1, EcPBP1b^C794A (pSI233), truncation …; test: FRET or BRET
[2] = molecular target: T2, EcPBP1b^82-804 (pSI199), TM domain substituted with an N-terminal cysteine acylation site, ALFA-tagged (E. coli); test: BLI

| Binder | Kd [1] [nM] | Kd [2] [nM] |
| --- | --- | --- |
| LpoB^64-213 S157V Y178W (domain or fragment) HEDQTAPPAPHIRHYDWNGAMQPMVSKMLGADGVTAGSVLLVDSVNNRTNGSLNAAEATETLRNALANNGKFTLVSAQQLSMAKQQLGLSPQDVLGTRSKAIGIARNVGAHYVLWSSASGNVNAPTLQMQLMLVQTGEIIWSGKGAVSQQ | – | 24 |
| LpoB^64-213 A164S S180I S157V (combined) (domain or fragment) HEDQTAPPAPHIRHYDWNGAMQPMVSKMLGADGVTAGSVLLVDSVNNRTNGSLNAAEATETLRNALANNGKFTLVSAQQLSMAKQQLGLSPQDVLGTRSKSIGIARNVGAHYVLYSIASGNVNAPTLQMQLMLVQTGEIIWSGKGAVSQQ | – | 9 |

Further lines, results first:

| Kd [1] [nM] | Kd [2] [nM] | Binder |
| --- | --- | --- |
| 900 | – | EcLpoB^S211C (pSI204), truncation 21-213, Cy5-labelled (natural protein, E. coli, UniProt P0AB38 21-213, looked up, Cy5 (sulfo-Cy5-maleimide) on C211) VGQREPAPVEEVKPAPEQPAEPQQPVPTVPSVPTIPQQPGPIEHEDQTAPPAPHIRHYDWNGAMQPMVSKMLGADGVTAGSVLLVDSVNNRTNGSLNAAEATETLRNALANNGKFTLVSAQQLSMAKQQLGLSPQDSLGTRSKAIGIARNVGAHYVLYSSASGNVNAPTLQMQLMLVQTGEIIWSGKGAVCQQ |
| – | 915 | LpoB^64-213 (pSI259), wild type (domain or fragment) HEDQTAPPAPHIRHYDWNGAMQPMVSKMLGADGVTAGSVLLVDSVNNRTNGSLNAAEATETLRNALANNGKFTLVSAQQLSMAKQQLGLSPQDSLGTRSKAIGIARNVGAHYVLYSSASGNVNAPTLQMQLMLVQTGEIIWSGKGAVSQQ |
